Experiments:
[1] = target: human C1q (Calbiochem) (human, UniProt P02745 23-245; P02746 28-253; P02747 29-245); experiment: ELISA: antibody coated on the plate at the concentration shown, human C1q added, detected with HRP anti-human C1q, OD 450 nm
[2] = target: T1, mouse FcγRIV (mouse, UniProt A0A0B4J1G0 21-203); experiment: SPR (Biacore T200, pH 7.4, 25 °C): His-tagged FcγR captured by anti-His antibody; antibody injected at 100 nM alone (Ab alone) or as 1:1 complex with trimeric CD154 (CD154 IC); binding level / capture level [D]
T1 construct: also called mFcγRIV; mouse FcγR4
T1 sequence: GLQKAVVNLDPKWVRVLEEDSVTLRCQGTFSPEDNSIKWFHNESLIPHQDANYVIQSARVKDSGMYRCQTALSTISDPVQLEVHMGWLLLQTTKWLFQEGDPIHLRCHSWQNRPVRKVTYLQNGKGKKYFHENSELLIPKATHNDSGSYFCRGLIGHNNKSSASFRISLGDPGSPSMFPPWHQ

[3] = target: T2, mouse FcγRIIb (mouse, UniProt P08101 30-210); experiment: SPR (Biacore T200, pH 7.4, 25 °C): His-tagged FcγR captured by anti-His antibody; antibody injected at 100 nM alone (Ab alone) or as 1:1 complex with trimeric CD154 (CD154 IC); binding level / capture level [B]
T2 construct: also called mFcγRIIb; mouse FcγR2b
T2 sequence: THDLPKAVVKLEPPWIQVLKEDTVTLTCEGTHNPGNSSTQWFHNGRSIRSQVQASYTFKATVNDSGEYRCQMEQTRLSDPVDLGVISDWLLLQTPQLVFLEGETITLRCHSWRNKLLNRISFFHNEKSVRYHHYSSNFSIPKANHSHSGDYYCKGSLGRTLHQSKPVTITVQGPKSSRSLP

[4] = target: T3, human FcγRIIb (human, UniProt P31994 43-217); experiment: SPR (Biacore T200, pH 7.4, 25 °C): His-tagged FcγR captured by anti-His antibody; antibody injected at 100 nM alone (Ab alone) or as 1:1 complex with trimeric CD154 (CD154 IC); binding level / capture level [D]
T3 construct: also called human FcγR2b
T3 sequence: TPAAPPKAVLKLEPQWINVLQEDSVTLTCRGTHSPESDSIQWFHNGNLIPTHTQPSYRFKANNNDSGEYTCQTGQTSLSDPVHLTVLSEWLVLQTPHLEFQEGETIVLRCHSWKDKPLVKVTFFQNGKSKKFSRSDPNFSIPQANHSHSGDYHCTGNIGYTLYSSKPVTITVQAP

[5] = target: T4, human FcγRIIIb (NA2) (human, UniProt O75015 17-200); experiment: SPR (Biacore T200, pH 7.4, 25 °C): His-tagged FcγR captured by anti-His antibody; antibody injected at 100 nM alone (Ab alone) or as 1:1 complex with trimeric CD154 (CD154 IC); binding level / capture level [H]
T4 construct: also called human FcγR3b allelic variant NA2
T4 chain: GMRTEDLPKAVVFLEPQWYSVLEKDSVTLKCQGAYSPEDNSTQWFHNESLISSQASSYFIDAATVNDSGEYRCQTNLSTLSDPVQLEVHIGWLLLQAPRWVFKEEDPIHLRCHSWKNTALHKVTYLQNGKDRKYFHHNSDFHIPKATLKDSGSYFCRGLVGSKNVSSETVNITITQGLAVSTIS

[6] = target: T5, mouse FcγRIII (mouse, UniProt P08508 31-215); experiment: SPR (Biacore T200, pH 7.4, 25 °C): His-tagged FcγR captured by anti-His antibody; antibody injected at 100 nM alone (Ab alone) or as 1:1 complex with trimeric CD154 (CD154 IC); binding level / capture level [C]
T5 construct: also called mFcγRIII; mouse FcγR3
T5 chain: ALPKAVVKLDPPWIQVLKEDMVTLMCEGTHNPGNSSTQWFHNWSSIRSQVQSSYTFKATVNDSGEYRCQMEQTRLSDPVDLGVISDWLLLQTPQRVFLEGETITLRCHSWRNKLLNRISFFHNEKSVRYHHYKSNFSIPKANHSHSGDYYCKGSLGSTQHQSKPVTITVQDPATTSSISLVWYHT

[7] = target: T6, Soluble human FcRn (human, UniProt P55899 24-297; P61769 21-119); experiment: SPR (Biacore T200, pH 7.4, 25 °C): biotinylated FcRn captured on a CAP chip; antibody injected at 100 nM alone (Ab alone) or as 1:1 complex with trimeric CD154 (CD154 IC); binding level / capture level
T6 construct: also called Biotinylated-FcRn

[8] = target: T7, human FcγRIa (human, UniProt P12314 16-292); experiment: SPR (Biacore T200, pH 7.4, 25 °C): His-tagged FcγR captured by anti-His antibody; antibody injected at 100 nM alone (Ab alone) or as 1:1 complex with trimeric CD154 (CD154 IC); binding level / capture level [A]
T7 construct: also called human FcγR1a

[9] = target: T8, human FcγRIIa (167H) (human, UniProt P12318 36-217); experiment: SPR (Biacore T200, pH 7.4, 25 °C): His-tagged FcγR captured by anti-His antibody; antibody injected at 100 nM alone (Ab alone) or as 1:1 complex with trimeric CD154 (CD154 IC); binding level / capture level [B]
T8 construct: also called human FcγR2a allelic variant 167H
T8 sequence: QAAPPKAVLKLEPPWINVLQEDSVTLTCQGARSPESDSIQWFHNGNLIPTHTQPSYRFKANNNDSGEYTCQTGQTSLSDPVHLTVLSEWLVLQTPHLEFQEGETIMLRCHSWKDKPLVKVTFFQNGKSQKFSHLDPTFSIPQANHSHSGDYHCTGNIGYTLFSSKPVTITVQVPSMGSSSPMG

[10] = target: T9, human FcγRIIIa (158V) (human, UniProt P08637 17-208); experiment: SPR (Biacore T200, pH 7.4, 25 °C): His-tagged FcγR captured by anti-His antibody; antibody injected at 100 nM alone (Ab alone) or as 1:1 complex with trimeric CD154 (CD154 IC); binding level / capture level [F]
T9 construct: also called human FcγR3a allelic variant 158V
T9 sequence (P08637 other isoform, or with tags, fused parts or gaps limits assumed): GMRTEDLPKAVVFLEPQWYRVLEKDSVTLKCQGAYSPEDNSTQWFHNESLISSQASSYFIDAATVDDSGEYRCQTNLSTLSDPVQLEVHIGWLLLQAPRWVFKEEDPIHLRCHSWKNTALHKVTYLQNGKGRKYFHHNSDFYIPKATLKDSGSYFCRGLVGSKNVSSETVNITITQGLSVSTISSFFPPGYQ

Chain of human C1q (Calbiochem) (P02745 23-245 limits assumed, chain 1 of 3): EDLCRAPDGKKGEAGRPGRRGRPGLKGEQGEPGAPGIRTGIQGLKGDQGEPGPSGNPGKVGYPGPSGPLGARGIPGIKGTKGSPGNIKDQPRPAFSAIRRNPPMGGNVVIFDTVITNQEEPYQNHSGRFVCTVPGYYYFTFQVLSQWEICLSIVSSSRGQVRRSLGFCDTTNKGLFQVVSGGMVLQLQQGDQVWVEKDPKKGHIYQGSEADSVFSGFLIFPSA
Chain of human C1q (Calbiochem) (P02746 28-253 limits assumed, chain 2 of 3): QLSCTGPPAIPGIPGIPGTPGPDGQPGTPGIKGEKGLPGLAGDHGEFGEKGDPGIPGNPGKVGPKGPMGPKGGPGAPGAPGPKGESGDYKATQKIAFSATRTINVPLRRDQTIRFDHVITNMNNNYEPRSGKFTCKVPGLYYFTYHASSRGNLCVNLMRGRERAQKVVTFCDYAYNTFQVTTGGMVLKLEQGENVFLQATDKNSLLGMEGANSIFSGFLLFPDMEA
Chain of human C1q (Calbiochem) (P02747 29-245 limits assumed, chain 3 of 3): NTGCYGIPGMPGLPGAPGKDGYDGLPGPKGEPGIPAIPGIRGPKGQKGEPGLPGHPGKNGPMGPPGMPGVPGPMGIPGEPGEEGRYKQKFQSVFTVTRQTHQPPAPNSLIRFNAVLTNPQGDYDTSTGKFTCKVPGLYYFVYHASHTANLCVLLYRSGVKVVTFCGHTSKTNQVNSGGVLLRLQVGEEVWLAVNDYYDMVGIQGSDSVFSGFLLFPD
T7 sequence (P12314 16-292 limits assumed): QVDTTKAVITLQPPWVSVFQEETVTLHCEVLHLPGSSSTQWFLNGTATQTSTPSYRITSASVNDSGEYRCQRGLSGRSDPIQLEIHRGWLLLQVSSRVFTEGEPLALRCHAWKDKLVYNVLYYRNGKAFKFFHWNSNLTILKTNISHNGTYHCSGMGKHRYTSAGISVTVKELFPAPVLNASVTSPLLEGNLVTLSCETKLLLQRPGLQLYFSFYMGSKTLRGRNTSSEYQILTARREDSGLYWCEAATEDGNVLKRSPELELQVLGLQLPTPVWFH
T6 sequence (P55899 24-297 limits assumed, chain 1 of 2): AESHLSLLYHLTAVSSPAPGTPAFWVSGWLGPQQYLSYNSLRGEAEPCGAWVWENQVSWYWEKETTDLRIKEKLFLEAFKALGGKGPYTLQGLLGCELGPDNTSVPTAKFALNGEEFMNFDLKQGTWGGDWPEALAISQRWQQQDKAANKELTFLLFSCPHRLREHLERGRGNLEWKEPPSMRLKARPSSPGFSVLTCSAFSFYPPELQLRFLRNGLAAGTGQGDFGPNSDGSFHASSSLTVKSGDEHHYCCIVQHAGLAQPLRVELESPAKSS
T6 sequence (P61769 21-119 limits assumed, chain 2 of 2): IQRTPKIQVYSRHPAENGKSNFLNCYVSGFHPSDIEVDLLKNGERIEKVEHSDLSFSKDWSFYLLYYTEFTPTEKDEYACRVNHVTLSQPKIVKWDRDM

| Binder | binding result [1] | binding result [2] | binding result [3] | binding result [4] | binding result [5] | binding result [6] | binding result [7] | binding result [8] | binding result [9] | binding result [10] |
| --- | --- | --- | --- | --- | --- | --- | --- | --- | --- | --- |
| Anti-CD154 antibody (SLAPH0336a/SLAPL0336a) with Fc variant LALA+ACT3 (SG1044) (antibody) heavy: EVQLVESGGGSVKPGGSLKLSCAASGFTFSDHYMYWVRQTPEKRLEWVAIISGGGSYTSYPDSMKGRFTISRDNAKNILHLQMSSLKSEDTAMYYCTRESNGKPGFAYWGQGTLVTVSAASTKGPSVFPLAPSSKSTSGGTAALGCLVKDYFPEPVTVSWNSGALTSGVHTFPAVLQSSGLYSLSSVVTVPSSSLGTQTYICNVNHKPSNTKVDKRVEPKSCDKTHTCPPCPAPEAAGGPSVFLFPPKPKDTLMISRTPEVTCVVVDVSHEDPEVKFNWYVDGVEVHNAKTKPREEQYNSTYRVVSVLTVLHQDWLNGKEYKCKVSNKALPAPIEKTISKAKGQPREPQVYTLPPSREEMTKNQVSLTCLVKGFYPSDIAVEWESNGQPENNYKTTPPVLDSDGSFFLYSKLTVDKSRWQQGNVFSCSVLHEALHAHTTRKELSLSP light: not shown | binds | no binding (tested: 100 nM) | no binding (tested: 100 nM) | no binding (tested: 100 nM) | no binding (tested: 100 nM) | no binding (tested: 100 nM) | binds | binds | no binding (tested: 100 nM) |  |
| Anti-CD154 antibody (SLAPH0336a/SLAPL0336a) with Fc variant LALA+ACT3+KAES (SG1105) (antibody, also called LALA+KAES+ACT3) heavy: EVQLVESGGGSVKPGGSLKLSCAASGFTFSDHYMYWVRQTPEKRLEWVAIISGGGSYTSYPDSMKGRFTISRDNAKNILHLQMSSLKSEDTAMYYCTRESNGKPGFAYWGQGTLVTVSAASTKGPSVFPLAPSSKSTSGGTAALGCLVKDYFPEPVTVSWNSGALTSGVHTFPAVLQSSGLYSLSSVVTVPSSSLGTQTYICNVNHKPSNTKVDKRVEPKSCDKTHTCPPCPAPEAAGGPSVFLFPPKPKDTLMISRTPEVTCVVVDVSHEDPEVKFNWYVDGVEVHNAKTKPREEQYNSTYRVVSVLTVLHQDWLNGKEYKCKVSNAALPAPISKTISKAKGQPREPQVYTLPPSREEMTKNQVSLTCLVKGFYPSDIAVEWESNGQPENNYKTTPPVLDSDGSFFLYSKLTVDKSRWQQGNVFSCSVLHEALHAHTTRKELSLSP light: not shown | binds | no binding (tested: 100 nM) | no binding (tested: 100 nM) | no binding (tested: 100 nM) | no binding (tested: 100 nM) | no binding (tested: 100 nM) | binds | binds | no binding (tested: 100 nM) | binds |
| Anti-CD154 antibody (SLAPH0336a/SLAPL0336a) with Fc variant LALA+ACT5 (SG1045) (antibody) heavy: EVQLVESGGGSVKPGGSLKLSCAASGFTFSDHYMYWVRQTPEKRLEWVAIISGGGSYTSYPDSMKGRFTISRDNAKNILHLQMSSLKSEDTAMYYCTRESNGKPGFAYWGQGTLVTVSAASTKGPSVFPLAPSSKSTSGGTAALGCLVKDYFPEPVTVSWNSGALTSGVHTFPAVLQSSGLYSLSSVVTVPSSSLGTQTYICNVNHKPSNTKVDKRVEPKSCDKTHTCPPCPAPEAAGGPSVFLFPPKPKDTLMISRTPEVTCVVVDVSHEDPEVKFNWYVDGVEVHNAKTKPREEQYNSTYRVVSVLTVLHQDWLNGKEYKCKVSNKALPAPIEKTISKAKGQPREPQVYTLPPSREEMTKNQVSLTCLVKGFYPSDIAVEWESNGQPENNYKTTPPVLDSDGSFFLYSKLTVDKSRWQQGNVFSCSVLHEALHAHYTRKELSLSP light: not shown | binds | no binding (tested: 100 nM) | no binding (tested: 100 nM) | no binding (tested: 100 nM) | no binding (tested: 100 nM) | no binding (tested: 100 nM) | binds | binds | no binding (tested: 100 nM) | binds |
| Anti-CD154 antibody (SLAPH0336a/SLAPL0336a) with Fc variant LALA+ACT5+KAES (SG1106) (antibody, also called LALA+KAES+ACT5) heavy: EVQLVESGGGSVKPGGSLKLSCAASGFTFSDHYMYWVRQTPEKRLEWVAIISGGGSYTSYPDSMKGRFTISRDNAKNILHLQMSSLKSEDTAMYYCTRESNGKPGFAYWGQGTLVTVSAASTKGPSVFPLAPSSKSTSGGTAALGCLVKDYFPEPVTVSWNSGALTSGVHTFPAVLQSSGLYSLSSVVTVPSSSLGTQTYICNVNHKPSNTKVDKRVEPKSCDKTHTCPPCPAPEAAGGPSVFLFPPKPKDTLMISRTPEVTCVVVDVSHEDPEVKFNWYVDGVEVHNAKTKPREEQYNSTYRVVSVLTVLHQDWLNGKEYKCKVSNAALPAPISKTISKAKGQPREPQVYTLPPSREEMTKNQVSLTCLVKGFYPSDIAVEWESNGQPENNYKTTPPVLDSDGSFFLYSKLTVDKSRWQQGNVFSCSVLHEALHAHYTRKELSLSP light: not shown | binds | no binding (tested: 100 nM) | no binding (tested: 100 nM) | no binding (tested: 100 nM) | no binding (tested: 100 nM) | no binding (tested: 100 nM) | binds | binds | no binding (tested: 100 nM) | binds |

Reference: patent publication US20190218277A1 (Chugai, published 2019)
